The Immune Epitope Database (IEDB)

The sequences below were run against HLA-A*02:01 (assay: IEDB peptide-MHC binding, purified MHC/competitive/radioactivity; ≥ and ≤ were set here for values at or beyond the usual limits of such assays). Conditions: source organism: Bordetella pertussis.

Sequence	IC50
HLSPALADV	0.444 µM
STYELLDYL	8.01 µM

Each sequence was assayed against HLA-B*07:02 in the same assay as above. Conditions: source organism: Bordetella pertussis.

Sequence	IC50
LAARGDGAL	6.34 µM
QQLKQADRD	69.6 µM

These sequences were tested against HLA-B*35:01 in the same assay as above. Conditions: source organism: Bordetella pertussis.

Sequence	IC50
LAARGDGAL	69.9 µM
YAIDGTAAG	2.33 µM

Each sequence was assayed against HLA-B*44:03 in the same assay as above. Conditions: source organism: Bordetella pertussis.

Sequence	IC50
AEGGATLGA	12 µM
LSAALGADW	1.17 µM
MEVMLRAVF	0.0115 µM

These sequences were tested against HLA-B*53:01 in the same assay as above. Conditions: source organism: Bordetella pertussis.

Sequence	IC50
ASSPDAHVP	52.3 µM
FIYRETFCI	6.63 µM
LSAALGADW	1.69 µM
TVVQRNKHW	69.9 µM
VGAGGYEAG	69.9 µM
VSGGSLSAP	54.5 µM
YAEHGEVSI	11.4 µM

The sequences below were run against HLA-B*57:01 in the same assay as above. Conditions: source organism: Bordetella pertussis.

Sequence	IC50
EKRLDIDDA	≥ 70.4 µM
NNETMSGRQ	≥ 70.4 µM
TVVQRNKHW	≥ 70.4 µM
VTSVAMKPY	9.09 µM
